Test [1] deals with P47 (P32 with proline replaced by octahydroindole-2-carboxylic acid, Oic). Description: ITC, 25 C. For orientation: In ITC the heat of successive injections is recorded.
Test [2] has as its target P50 (hexapeptide with Oic and a C-terminal 3,4-dichlorinated phenylalanine). The test can be described thus: ITC, 25 C.

B1: Pseudomonas aeruginosa sliding clamp (other)
chain: MHFTIQREALLKPLQLVAGVVERRQTLPVLSNVLLVVEGQQLSLTGTDLEVELVGRVVLEDAAEPGEITVPARKLMDICKSLPNDVLIDIRVEEQKLLVKAGRSRFTLSTLPANDFPTVEEGPGSLNFSIAQSKLRRLIDRTSFAMAQQDVRYYLNGMLLEVNGGTLRSVATDGHRLAMCSLDAQIPSQDRHQVIVPRKGILELARLLTEQDGEVGIVLGQHHIRATTGEFTFTSKLVDGKFPDYERVLPRGGDKLVVGDRQQLREAFSRTAILSNEKYRGIRLQLSNGLLKIQANNPEQEEAEEEVQVEYNGGNLEIGFNVSYLLDVLGVIGTEQVRFILSDSNSSALVHEADNDDSAYVVMPMRL
notes: also called ^PaSC; P. aeruginosa
As a reminder, the Kd is a measure of binding affinity in units of concentration. Lower therefore signals a tighter complex. In the case of B1, the values for the Kd in test [1] and in test [2] were 201 nM and 20 nM, respectively.

(Values after patent US20230312646A1 (published 2023).)
